# Entries after “also recorded” stand apart in the source; their conditions may differ.
# B1: EGFR-targeted immunoliposome constructed from C10 scFv (other)
# VH: EVQLVQSGAEVKKPGSSVKVSCKASGGTFSSYAISWVRQAPGQGLEWMGGIIPIFGTANYAQKFQGRVTITADESTSTAYMELSSLRSEDTAVYYCAREEGPYCSSTSCYGAFDIWGQGTLVTVSS
# VL: QSVLTQDPAVSVALGQTVKITCQGDSLRSYFASWYQQKPGQAPTLVMYARNDRPAGVPDRFSGSKSGTSASLAISGLQSEDEADYYCAAWDDSLNGYLFGAGTKLTVL
# modifications: free cysteine residue at the COOH terminus conjugated to Mal-PEG-DSPE and inserted into the liposome ; The scFv carries a free cysteine at the COOH terminus conjugated to Mal-PEG-DSPE and inserted into a 100-120 nm liposome. It is multivalent, at 12-148 scFv per liposome. None of this can be carried by the letters.
# notes: also called C10 ILs; C10 IL; not shown: scFv linker, the C-terminal extension with the free cysteine and tags, and the Mal-PEG-DSPE liposome carrier
# B2: C10: parental (wild-type) internalizing human anti-EGFR scFv from a non-immune phage library; SEQ ID NO:1 (protein)
# scFv: EVQLVQSGAEVKKPGSSVKVSCKASGGTFSSYAISWVRQAPGQGLEWMGGIIPIFGTANYAQKFQGRVTITADESTSTAYMELSSLRSEDTAVYYCAREEGPYCSSTSCYGAFDIWGQGTLVTVSS
# modifications: Synthetic antibody
# B3: 2224: P2/2 scFv combined with the VH CDR3 Gly to Ala mutation from P2/4; SEQ ID NO:17 and 24 (protein)
# scFv: QSVLTQDPAVSVALGQTVKITCQGDSLRSYLASWYQQKPGQAPTLVTYARNDRPAGVPDRFSGSKSGTSASLAISGLQSEDEADYYCAAWDDSLNGYLFGAGTKLTVL
# modifications: Synthetic antibody
# How the values were obtained:
# [1] = biological target: T1, epidermal growth factor receptor (EGFR) on tumor cells (human, UniProt P00533 25-1210); assay: apparent KD, flow cytometry, fluorescent immunoliposomes on MDAMB468 cells, 4 C; 74 scFv/liposome
# T1 construct: whole, on cells; Intact EGFR on A431 and MDAMB468 cells (1x10^6-3x10^6 EGFR/cell); also called EGFR-expressing A431 cells; MDAMB468 cells
# [2] = biological target: T1, epidermal growth factor receptor (EGFR) …; assay: apparent KD, flow cytometry, fluorescent immunoliposomes on MDAMB468 cells, 4 C; 148 scFv/liposome
# biotinylated EGFR-ECD = biological target: T2, biotinylated EGFR-ECD (Homo sapiens, UniProt P00533); assay: KD of yeast-displayed scFv for biotinylated EGFR-ECD by flow cytometry; assay type: binding; settings: concentrations as high as 8 μM
# T2 construct: Recombinant EGFR-ECD was expressed in HEK293 cells; made in house; host or cells: HEK293
# Description: Generally, six to eight different concentrations of biotinylated EGFR were used to span a range of concentrations from ten times above to ten times below the KD. Incubation volumes, times and yeast numbers were chosen to ensure that the studies were done in at least fivefold antigen excess and that equilibrium had been achieved (Razai et al. (2005) J. Mol. Biol. 351: 158-169). For anti-EGFR scFv, […] in 50 μl were incubated with biotinylated EGFR-ECD for 1 h at room temperature. […] Only yeast displaying scFv (as determined by binding of SV5 mAb) were gated for affinity measurements.
# MDAMB468 cells = assay: differential binding of scFv to cell lines by flow cytometry; parameters: species or system human; settings: 1×10^6−3×10^6 EGFR/cell
# A431 cells = biological target: T3, A431 cells (Homo sapiens, UniProt P00533); assay: as above; settings: 1×10^6−3×10^6 EGFR/cell
# T3 construct: endogenous in cells; host or cells: A431
# MDAMB453 cells = assay: as above; settings: 10^4 EGFR/cell
# NR6 cells = assay: as above; settings: parental, EGFR negative
# [3] = biological target: T4, EGFR (vIII) stably transfected NR6M cells (Homo sapiens, UniProt P00533, DELINS30-297G); assay: as above
# T4 construct: expressed in transfected cells; host or cells: NR6M (NR6 stably transfected with EGFRvIII)
# [4] = biological target: T5, A431 cells expressing EGFR (Homo sapiens, UniProt P00533); assay: scFv affinity for cells expressing EGFR (A431) by flow cytometry; assay type: binding
# T5 construct: Human squamous carcinoma A431 cells expressing EGFR; endogenous in cells; host or cells: A431
# Description: Human squamous carcinoma A431 cells expressing EGFR were grown to 80-90% confluence in RPMI medium supplemented with 10% fetal bovine serum and harvested by trypsinization. […] Cell binding was performed at 4° C. in FACS buffer in a volume calculated to ensure fivefold scFv excess and for a duration calculated to ensure that the reaction had reached equilibrium. After two washes with 200 μL of FACS buffer, cell-bound scFv was detected by the addition of 100 μl of 1 μg/ml biotinylated His probe (Santa Cruz Biotech.) and a 1:800 (v/v) dilution of streptavidin-PE (Biosource). After incubation at 4° C. for 30 min, the cells were washed twice and resuspended in PBS containing 4% (v/v) paraformaldehyde. Fluorescence was measured by flow cytometry in a FACS LSRII instrument (Becton Dickinson), and the median fluorescence intensity (MFI) values were fit to the equation:
# MFI=MFImin+MFImax([Ab]/(KD+[Ab])
# using the software program Kaleidagraph as described previously (Benedict et al. (1997) J. Immunol. Methods, 201: 223-231).
molecule,measurement,setting,value
B1,Kd,[1],1.75 nM
same,Kd,[2],0.36 nM
B2,binding of yeast-displayed scFv to biotinylated recombinant EGFR,biotinylated EGFR-ECD,only minimal binding
same,binding to MDAMB468 cells,MDAMB468 cells,stained
same,binding to A431 cells,A431 cells,stained
same,binding to MDAMB453 cells,MDAMB453 cells,did not stain
same,binding to NR6 cells,NR6 cells,minimal binding; also recorded: did not stain
same,binding to NR6M cells,[3],strong staining; also recorded: stained
B3,improvement in affinity compared to C10 scFv,[4],280 fold
